Experimental findings from patent US20200392228A1 (PANDION OPERATIONS, published 2020) are described below.

Assay [1] addresses T1, human MAdCAM expressed on cells (human, UniProt Q13477 19-382).
T1 construct: whole, on cells; also called MADCAM1
T1 sequence (looked up): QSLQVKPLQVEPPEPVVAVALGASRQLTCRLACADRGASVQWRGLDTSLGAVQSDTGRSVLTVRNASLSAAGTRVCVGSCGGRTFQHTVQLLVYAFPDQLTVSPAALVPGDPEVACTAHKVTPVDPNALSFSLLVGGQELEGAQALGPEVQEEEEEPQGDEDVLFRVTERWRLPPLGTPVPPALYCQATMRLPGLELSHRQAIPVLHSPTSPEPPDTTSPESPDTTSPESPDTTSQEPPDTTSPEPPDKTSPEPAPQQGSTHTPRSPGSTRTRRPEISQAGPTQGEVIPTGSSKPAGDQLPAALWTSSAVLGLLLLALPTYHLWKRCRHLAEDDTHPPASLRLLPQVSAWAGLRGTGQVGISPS
Description: cell binding.

Assay [2] has as its target T2, mouse MAdCAM expressed on cells (mouse, UniProt Q61826 22-405).
T2 construct: whole, on cells
T2 sequence (looked up): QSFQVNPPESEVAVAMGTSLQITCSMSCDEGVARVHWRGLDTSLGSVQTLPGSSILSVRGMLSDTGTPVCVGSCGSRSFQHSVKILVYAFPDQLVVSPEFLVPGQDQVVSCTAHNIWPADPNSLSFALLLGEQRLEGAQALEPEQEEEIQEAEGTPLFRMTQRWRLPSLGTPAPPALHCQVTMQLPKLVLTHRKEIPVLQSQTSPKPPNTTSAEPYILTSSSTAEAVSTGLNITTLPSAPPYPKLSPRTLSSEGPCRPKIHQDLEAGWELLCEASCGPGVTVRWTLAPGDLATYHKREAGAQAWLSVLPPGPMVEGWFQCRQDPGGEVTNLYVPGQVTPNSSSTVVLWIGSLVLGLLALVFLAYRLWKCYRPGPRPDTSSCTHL
The assay is described as follows: cell binding.

Another assay addresses T3, human MAdCAM protein (human, UniProt Q13477 19-317).
T3 construct: used for Octet, SPR, ELISA and plate capture; construct not described; also called recombinant human MAdCAM; soluble monomeric human MAdCAM
T3 sequence (looked up): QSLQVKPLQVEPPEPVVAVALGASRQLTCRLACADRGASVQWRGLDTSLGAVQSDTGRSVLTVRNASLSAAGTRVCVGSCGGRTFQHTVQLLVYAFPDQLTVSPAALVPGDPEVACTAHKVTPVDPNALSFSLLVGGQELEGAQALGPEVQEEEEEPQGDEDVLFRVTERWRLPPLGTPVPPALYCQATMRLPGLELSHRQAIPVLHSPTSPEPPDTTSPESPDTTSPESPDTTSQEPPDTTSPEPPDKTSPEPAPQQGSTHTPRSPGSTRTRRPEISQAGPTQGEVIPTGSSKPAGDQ
The assay is described as follows: Octet.

Assay [3] has as its target T1, human MAdCAM expressed on cells. Description: cell binding. The source holds these as a separate data set.
Assay [4] addresses T2, mouse MAdCAM expressed on cells. The assay is described as follows: cell binding. This is another data set of the same source.
A further assay deals with T4, mouse MAdCAM protein (mouse, UniProt Q61826 22-365, limits assumed).
T4 construct: also called recombinant mouse MAdCAM-1; mMAdCAM-1
T4 sequence (looked up): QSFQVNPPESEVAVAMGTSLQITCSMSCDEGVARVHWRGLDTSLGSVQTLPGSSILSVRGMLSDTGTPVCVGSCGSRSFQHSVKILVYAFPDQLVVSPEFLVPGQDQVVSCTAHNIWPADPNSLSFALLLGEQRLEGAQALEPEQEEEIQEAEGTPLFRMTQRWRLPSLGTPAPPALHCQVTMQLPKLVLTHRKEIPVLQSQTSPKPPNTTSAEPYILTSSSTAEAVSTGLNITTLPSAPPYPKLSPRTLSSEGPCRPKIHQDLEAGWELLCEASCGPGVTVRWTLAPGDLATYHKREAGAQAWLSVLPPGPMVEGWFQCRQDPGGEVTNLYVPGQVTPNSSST
Description: Octet. For orientation: Biolayer interferometry detects binding as a change in optical thickness at a sensor tip.

Like-named read-outs stand apart in the source and are kept apart here.

B1: MAdCAM antibody Clone ID 57 of Table 7 (IgG) (antibody, V domains shown)
VH: EVQLLESGGGLVQPGGSLRLSCAASGFSVSSNYMSWVRQAPGKGLEWVAGISYDGSSKPYADSVKGRFTISRDNSKNTLYLQMNSLRAEDTAVYYCARSRGIAARPLQHWGQGTLVTVSS
VL: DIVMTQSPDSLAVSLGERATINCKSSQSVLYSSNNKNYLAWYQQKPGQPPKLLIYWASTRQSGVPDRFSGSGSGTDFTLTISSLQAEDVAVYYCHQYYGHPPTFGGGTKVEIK
notes: IgG format
As for B1, the binding result in assay [1] is on record as “binds”; in assay [2] it was “no binding”.

B2: MAdCAM antibody Clone ID 65 of Table 6 (scFv) (scFv)
scFv: QVQLVQSGAEVKKPGASVKVSCKASGYTFTRHWIHWVRQAPGQGLEWMGWINVKTGGAGYAQKFQGRVTMTRDTSTSTVYMELSSLRSEDTAVYYCARESSGWYGTDVWGQGTTVTVSSGGGGSGGGGSGGGGSGGGGSDIQMTQSPSSLSASVGDRATITCRASQSISNYLAWYQQKPGKAPKLLIYAASSLQSGVPSRFSGSGSGTDFTLTISSLQPEDFATYYCQQSNSFPLTFGGGTKVEIK
Regarding B2, the binding result (with human MAdCAM protein; in assay [3]; in assay [4]) was “binds” in each case.

B3: MAdCAM antibody Clone ID 60 of Table 6 (scFv) (scFv)
scFv: EVQLLESGGGLVQPGGSLRLSCAASGFTFDDYTMHWVRQAPGKGLEWVSDISGSGGSTYYADSVKGRFTISRDNSKNTLYLQMNSLRAEDTAVYYCAKDVVVAGTPLHFDYWGQGTLVTVSSGGGGSGGGGSGGGGSGGGGSDIQMTQSPSSLSASVGDRVTITCQASQDISNYLNWYQQKPGKAPKLLIYAASYLQSGVPSRFSGSGSGTDFTLTISSLQPEDFATYYCQQAHNYPITFGQGTRLEIK
With B3, the binding result (in the assay with human MAdCAM protein; in assay [3]; in assay [4]) was “binds” each time.

B4: MAdCAM antibody Clone ID 64 of Table 6 (scFv) (scFv)
scFv: EVQLLESGGGLVKPGGSLRLSCAASGFAFSSHWMHWVRQAPGKGLEWVAGTSGSGESRDYADFVKGRFTISRDDSKNTLYLQMNSLKTEDTAVYYCARETYYYYYMDVWGKGTTVTVSSGGGGSGGGGSGGGGSGGGGSDIQMTQSPSSLSASVGDRVTITCRASQGISNYLAWYQQKPGKAPKLLIYDAANLEGGVPSRFSGSGSGTDFTLTISSLQPEDFATYYCQQSDIFPPTFGQGTKVEIK
As to B4, the binding result (in the assay with human MAdCAM protein; in assay [3]; in assay [4]) was “binds” throughout.

B5: MAdCAM antibody Clone ID 43 of Table 7 (IgG) (antibody, V domains shown)
VH: QVQLVQSGAEVKKPGASVKVSCKASGYTFTSYGISWVRQAPGQGLEWMGWMHPKSGDTGLTQKFQGRVTMTRDTSTSTVYMELSSLRSEDTAVYYCARDTPYYYYGMDVWGQGTTVTVSS
VL: DIQMTQSPSSLSASVGDRVTITCRASQSISSWLAWYQQKPGKAPKLLIYAASSLQSGVPSRFSGSGSGTDFTLTISSLQPEDFATYYCQQSYSVPITFGQGTKVEIK
notes: IgG format
Take B5: the binding result in assay [1] was “binds”; in assay [2], “no binding”.

B6: MAdCAM antibody Clone ID 65 of Table 7 (IgG) (antibody, V domains shown)
VH: QVQLVQSGAEVKKPGASVKVSCKASGYTFTSYDINWVRQAPGQGLEWMGWMNPNSGNTGYAQKFQGRVTMTRDTSTSTVYMELSSLRSEDTAVYYCAKDSDYSNLLWDYWGQGTLVTVSS
VL: DIQMTQSPSSLSASVGDRVTITCRASQDITNDLGWYQQKPGKAPKLLIYQASSLESGVPSRFSGSGSGTDFTLTISSLQPEDFATYYCQQSYTIPLTFGQGTKVEIK
notes: IgG format
Consider B6, for which the binding result (with mouse MAdCAM protein; in assay [2]) was “no binding” throughout.

B7: MAdCAM antibody Clone ID 1 of Table 6 (scFv) (scFv)
scFv: EVQLLESGGGLVQPGGSLRLSCAASGFTFSSYGMHWVRQAPGKGLEWVAVISDDGSDKYYADSVKGRFTISRDNSKNTLYLQMNSLRAEDTAVYYCTTSKYYYYYGMDVWGQGTTVTVSSGGGGSGGGGSGGGGSGGGGSDIQMTQSPSSLSASVGDRVTITCQASQDISKSLNWYQQKPGKAPKLLIYAASSLQSGVPSRFSGSGSGTDFTLTISSLQPEDFATYYCQQGYSTPLTFGGGTKVEIK
Consider B7, for which the binding result (with human MAdCAM protein; in assay [3]) was “binds” each time.

B8: MAdCAM antibody Clone ID 66 of Table 6 (scFv) (scFv)
scFv: EVQLLESGGGLVQPGGSLRLSCAASGFTFSSYWMHWVRQAPGKGLEWVAAISYDGKYKDYEDSVKGRFTISRDNSKNTLYLQMNSLRAEDTAVYYCARENKQWLASFDYWGQGTLVTVSSGGGGSGGGGSGGGGSGGGGSDIQMTQSPSSLSASVGDRVTITCQASQDISNFVNWYQQKPGKAPKLLIYAANLRSGVPSRFSGSGSGTDFTLTISSLQPEDFATYYCQQANSFPVTFGPGTKVDIK
Regarding B8, the binding result (in the assay with human MAdCAM protein; in assay [3]; in assay [4]) was “binds” each time.

B9: MAdCAM antibody Clone ID 28 of Table 7 (IgG) (antibody, V domains shown)
VH: EVQLLESGGGLVQPGGSLRLSCAASGFTFSSYAMSWVRQAPGKGLEWVSYISSSSTYTNYADSVKGRFTISRDNSKNTLYLQMNSLRAEDTAVYYCARANSSSWYDWYFDLWGQGTLVTVSS
VL: not shown
notes: IgG format
Take B9: the binding result (with mouse MAdCAM protein; in assay [2]) was “no binding” each time.

B10: MAdCAM antibody Clone ID 29 of Table 7 (IgG) (antibody, V domains shown)
VH: EVQLLESGGGLVQPGGSLRLSCAASGFTFSSYQMSWVRQAPGKGLEWVSYISSSSTYTNYADSVKGRFTISRDNSKNTLYLQMNSLRAEDTAVYYCARANSSSWYDWYFDLWGQGTLVTVSS
VL: not shown
notes: IgG format
Consider B10, for which the binding result (with mouse MAdCAM protein; in assay [2]) was “no binding” in each case.

B11: MAdCAM antibody Clone ID 61 of Table 6 (scFv) (scFv)
scFv: EVQLLESGGGLVQPGGSLRLSCAASEFTFSNAWMSWVRQAPGKGLEWVASISSTSAYIDYADSVKGRFTISRDNSKNTLYLQMNSLRAEDTAVYYCAREVVGATTFDYWGQGTLVTVSSGGGGSGGGGSGGGGSGGGGSDIQMTQSPSSLSASVGDRVTITCRASQSISTWLAWYQQKPGKAPKLLIYAASSLQSGVPSRFSGSGSGTDFTLTISSLQPEDFATYYCQQANAFPPTFGQGTRLEIK
On to B11, for which the binding result (with human MAdCAM protein; in assay [3]; in assay [4]) was “binds” throughout.

B12: MAdCAM antibody Clone ID 14 of Table 7 (IgG) (antibody, V domains shown)
VH: QVQLVQSGAEVKKPGSSVKVSCKASGYTFTNYYMHWVRQAPGQGLEWMGGIIPIVDGVKYAQKFQGRVTITADESTSTAYMELSSLRSEDTAVYYCAKGQFTGNYYYGMDYWGQGTLVTVSS
VL: DIQMTQSPSSLSASVGDRVTITCQANQDISNYLNWYQQKPGKAPKLLIYRASKLEAGVPSRFSGSGSGTDFTLTISSLQPEDFATYYCQQSSEIPYSFGQGTKVEIK
notes: IgG format
B12: the binding result (with mouse MAdCAM protein; in assay [2]) was “no binding” each time.

B13: MAdCAM antibody Clone ID 44 of Table 7 (IgG) (antibody, V domains shown)
VH: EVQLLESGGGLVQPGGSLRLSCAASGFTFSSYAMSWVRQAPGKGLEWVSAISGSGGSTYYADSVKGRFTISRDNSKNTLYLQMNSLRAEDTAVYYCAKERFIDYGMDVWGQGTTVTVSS
VL: DIQMTQSPSSLSASVGDRVTITCQASQDISNYLNWYQQKPGKAPKLLIYAASSLQSGVPSRFSGSGSGTDFTLTISSLQPEDFATYYCQQTYSGWTFGPGTKVDIK
notes: IgG format
B13: the binding result in assay [1] is “binds”; in assay [2] it was “no binding”.

B14: MAdCAM antibody Clone ID 74 of Table 7 (IgG) (antibody, V domains shown)
VH: QVQLVQSGAEVKKPGASVKVSCKASGYTFTGYYMHWVRQAPGQGLEWMGIINPSGGNTKYAQKFQGRVTMTRDTSTSTVYMELSSLRSEDTAVYYCTTADYYYYMDVWGKGTTVTVSS
VL: DIQMTQSPSSLSASVGDRVTITCRASQGISNYLAWYQQKPGKAPKLLIYAASSLQSGVPSRFSGSGSGTDFTLTISSLQPEDFATYYCQQYYSNADFGQGTKVEIK
notes: IgG format
Consider B14, for which the binding result (in the assay with mouse MAdCAM protein; in assay [2]) was “no binding” in each case.

B15: MAdCAM antibody Clone ID 52 of Table 7 (IgG) (antibody, V domains shown)
VH: EVQLLESGGGLVQPGGSLRLSCAASGFTFDDYGMSWVRQAPGKGLEWVSYISSSSSYIYYADSVKGRFTISRDNSKNTLYLQMNSLRAEDTAVYYCAREIAAAGFYGMDVWGQGTTVTVSS
VL: not shown
notes: IgG format
As to B15, the binding result is reported as “binds” in assay [1] and “no binding” in assay [2].
